# Source: patent US20240024520A1 (UCB, published 2024)
# Where “and” joins values, the source holds several entries; their conditions need not be identical. Equal values may be shown once. Read-outs that look alike come from different tables or passages of the source. Ends that are not written are not given here. * marks the point of attachment. Palmitoyl = CCCCCCCCCCCCCCCC(=O)*
# B1: K92 knob domain peptide, chemically synthesised, free energy method (Example 4) (peptide)
# peptide: TCPEGWSECGVAIYGYECGRWGCGHFLNSGPNISPYVTTGS
# modifications: disulfide (positions not given here); also: disulphides formed in glutathione redox buffer, pairing not given here
# notes: Disulphides formed in glutathione redox buffer
# B2: ultralong CDR-H3 of SEQ ID NO: 497 displayed on M13 phage (other)
# chain: TTVHQKTTRQTSCPDGYIAGDSSCYRWRCRGNNCCKYGENRLLNYYDYTCVPYRDTYEWYVD
# notes: not shown: poly-histidine, c-myc tag, M13 pIII
# B3: hC3nb1-K57 loop 3 with C-terminal single-chain Fc tag (bispecific antibody, not shown: a dimerising Fc or GST)
# VHH: QVQLVETGGGLVQAGGSLRLSCAASGSIFSLNAMGWFRQAPGKEREFVATINRSGGRTYYADSVKGSGGGSGCPPGYKSGVDCSPGSECKWGCYAVDGRRYGGYGADSGVSGGGSRFTISRDNGKNMVYLQMHSLKPEDTAIYYCAAGTGWSPQTDNEYNYWGQGTQVTVSS
# notes: also called hC3Nb1 Loop 3
# B4: K57 ultralong CDR-H3-hC3nb1 (bispecific antibody, not shown: a dimerising Fc or GST)
# VHH: TTVHQRTIKSGCPPGYKSGVDCSPGSECKWGCYAVDGRRYGGYGADSGVGSTYTHEFYVDAWGQGSSSSGSSSSGQVQLVETGGGLVQAGGSLRLSCAASGSIFSLNAMGWFRQAPGKEREFVATINRSGGRTYYADSVKGRFTISRDNGKNMVYLQMHSLKPEDTAIYYCAAGTGWSPQTDNEYNYWGQGTQVTVSS
# notes: tied to the label 'hC3Nb1 N-Term' on that ground; also called hC3Nb1 N-Term
# B5: ultralong CDR-H3 of SEQ ID NO: 499 displayed on M13 phage (other)
# chain: TTVHQQTQKHCPDDDTDRDGCSRPDSRGGSGCGSYGRYGDQGGACCPLTYEFDV
# notes: as for B2
# B6: ultralong CDR-H3 of SEQ ID NO: 506 displayed on M13 phage (other)
# chain: TTVHQQTQERCPDDYTDRGGCSIPYNCGGSRCCAYGRNGGYGGVSCSRTYEFYVN
# notes: as for B2
# B7: ultralong CDR-H3 of SEQ ID NO: 508 displayed on M13 phage (other)
# chain: TTVHQQTQERCPDNYTDRGGCSIPYTCGGSRCCAYGRNGGYGGVSCSRTYEFYVN
# notes: as for B2
# B8: ultralong CDR-H3 of SEQ ID NO: 507 displayed on M13 phage (other)
# chain: TTVHQQTQERCPDNYTDRGGCSIPYSCGDSRCCAYGRNGGYGGVSCSRTYEFYVN
# notes: as for B2
# B9: ultralong CDR-H3 of SEQ ID NO: 505 displayed on M13 phage (other)
# chain: TTVHQQTQERCPDDYTDRGGCSIPYNCGGSRCCAYGRYGDYGGISCSRTYEFYVN
# notes: as for B2
# B10: ultralong CDR-H3 of SEQ ID NO: 500 displayed on M13 phage (other)
# chain: TTVHQQTQERCPDDYTDRGGCSIPYNCGGSRCCAYGRNGGYGGISCSRTYEFYVN
# notes: as for B2
# B11: ultralong CDR-H3 of SEQ ID NO: 504 displayed on M13 phage (other)
# chain: TTVHQQTQERCPDDYTDRGGCSIPYSCGDSRCCAYGRNGGYGGVSCSRTYEFYVN
# notes: as for B2
# B12: ultralong CDR-H3 of SEQ ID NO: 503 displayed on M13 phage (other)
# chain: TTVHQQTQERCPDDYTDRGGCSIPYNCGGSRCCAYGRNGGYGGISCSRTYEWYVD
# notes: as for B2
# B13: ultralong CDR-H3 of SEQ ID NO: 501 displayed on M13 phage (other)
# chain: TTVHQQTQERCPDDYTDRGGCSIPYNCGGSRCCAYGRNGGYGGNTCSRTYELYVE
# notes: as for B2
# B14: ultralong CDR-H3 of SEQ ID NO: 502 displayed on M13 phage (other)
# chain: TTVHQQTQERCPDDYTDRGGCSIPYTCGGSRCCAYGRNGGYGGVSCSRTYEFYVN
# notes: as for B2
# B15: hC3nb1-K57 loop 2 with C-terminal single-chain Fc tag (bispecific antibody, not shown: a dimerising Fc or GST)
# VHH: QVQLVETGGGLVQAGGSLRLSCAASGSIFSLNAMGWFRQAPSGGGSGCPPGYKSGVDCSPGSECKWGCYAVDGRRYGGYGADSGVSGGGSKEREFVATINRSGGRTYYADSVKGRFTISRDNGKNMVYLQMHSLKPEDTAIYYCAAGTGWSPQTDNEYNYWGQGTQVTVSS
# notes: also called hC3Nb1 Loop 2
# B16: PGT121 Fab-K57 knob domain fusion protein (Fab)
# heavy: QMQLQESGPGLVKPSETLSLTCSVSGASISDSYWSWIRRSPGKGLEWIGYVHKSGDTNYSPSLKSRVNLSLDTSKNQVSLSLVAATAADSGKYYCARTLHGRRIYGSENLYFQGSGCPPGYKSGVDCSPGSECKWGCYAVDGRRYGGYGADSGVENLYFQGSEWFTYFYMDVWGNGTQVTVSSASTKGPSVFPLAPSSKSTSGGTAALGCLVKDYFPEPVTVSWNSGALTSGVHTFPAVLQSSGLYSLSSVVTVPSSSLGTQTYICNVNHKPSNTKVDKRVEPKSCDKTLEENLYFQGSGGSHHHHHHHHHH
# light: QSVLTQPPDISVAPGETARISCGEKSLGSRAVQWYQHRAGQAPSLIIYNNQDRPSGIPERFSGSPDSPFGTTATLTITSVEAGDEADYYCHIWDSRVPTKWVFGGGTTLTVLGQPKAAPSVTLFPPSSEELQANKATLVCLISDFYPGAVTVAWKADSSPVKAGVETTTPSKQSNNKYAASSYLSLTPEQWKSHRSYSCQVTHEGSTVEKTVAPTECS
# B17: PGT121 Fab-K149 knob domain fusion protein (Fab)
# heavy: QMQLQESGPGLVKPSETLSLTCSVSGASISDSYWSWIRRSPGKGLEWIGYVHKSGDTNYSPSLKSRVNLSLDTSKNQVSLSLVAATAADSGKYYCARTLHGRRIYGSENLYFQGSCPDGFSYRSWDDFCCPMVGRCLAPRNGSENLYFQGSEWFTYFYMDVWGNGTQVTVSSASTKGPSVFPLAPSSKSTSGGTAALGCLVKDYFPEPVTVSWNSGALTSGVHTFPAVLQSSGLYSLSSVVTVPSSSLGTQTYICNVNHKPSNTKVDKRVEPKSCDKTLEENLYFQGSGGSHHHHHHHHHH
# light: QSVLTQPPDISVAPGETARISCGEKSLGSRAVQWYQHRAGQAPSLIIYNNQDRPSGIPERFSGSPDSPFGTTATLTITSVEAGDEADYYCHIWDSRVPTKWVFGGGTTLTVLGQPKAAPSVTLFPPSSEELQANKATLVCLISDFYPGAVTVAWKADSSPVKAGVETTTPSKQSNNKYAASSYLSLTPEQWKSHRSYSCQVTHEGSTVEKTVAPTECS
# Legend:
# [1] = target: T1, human complement component C5 (human, UniProt P01031 19-673; P01031 678-1676); test: cell-based or functional assay
# T1 sequence (P01031 19-673 limits assumed, chain 1 of 2): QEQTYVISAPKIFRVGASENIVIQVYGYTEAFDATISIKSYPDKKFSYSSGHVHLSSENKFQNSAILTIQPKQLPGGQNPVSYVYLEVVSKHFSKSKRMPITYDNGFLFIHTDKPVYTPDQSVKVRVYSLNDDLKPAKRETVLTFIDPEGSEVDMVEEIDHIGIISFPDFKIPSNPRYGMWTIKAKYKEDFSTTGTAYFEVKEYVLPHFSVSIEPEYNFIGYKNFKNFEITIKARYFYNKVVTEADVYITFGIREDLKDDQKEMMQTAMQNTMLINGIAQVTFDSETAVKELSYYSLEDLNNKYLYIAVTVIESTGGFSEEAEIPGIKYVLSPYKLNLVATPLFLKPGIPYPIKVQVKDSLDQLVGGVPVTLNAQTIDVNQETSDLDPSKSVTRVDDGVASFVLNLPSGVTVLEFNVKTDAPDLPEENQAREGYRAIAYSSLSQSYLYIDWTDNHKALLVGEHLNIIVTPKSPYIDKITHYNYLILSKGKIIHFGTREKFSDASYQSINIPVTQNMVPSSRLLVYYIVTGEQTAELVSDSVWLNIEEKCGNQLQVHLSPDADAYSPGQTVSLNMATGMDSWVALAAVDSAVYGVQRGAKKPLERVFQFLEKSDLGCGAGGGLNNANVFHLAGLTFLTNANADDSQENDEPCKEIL
# T1 sequence (P01031 678-1676 limits assumed, chain 2 of 2): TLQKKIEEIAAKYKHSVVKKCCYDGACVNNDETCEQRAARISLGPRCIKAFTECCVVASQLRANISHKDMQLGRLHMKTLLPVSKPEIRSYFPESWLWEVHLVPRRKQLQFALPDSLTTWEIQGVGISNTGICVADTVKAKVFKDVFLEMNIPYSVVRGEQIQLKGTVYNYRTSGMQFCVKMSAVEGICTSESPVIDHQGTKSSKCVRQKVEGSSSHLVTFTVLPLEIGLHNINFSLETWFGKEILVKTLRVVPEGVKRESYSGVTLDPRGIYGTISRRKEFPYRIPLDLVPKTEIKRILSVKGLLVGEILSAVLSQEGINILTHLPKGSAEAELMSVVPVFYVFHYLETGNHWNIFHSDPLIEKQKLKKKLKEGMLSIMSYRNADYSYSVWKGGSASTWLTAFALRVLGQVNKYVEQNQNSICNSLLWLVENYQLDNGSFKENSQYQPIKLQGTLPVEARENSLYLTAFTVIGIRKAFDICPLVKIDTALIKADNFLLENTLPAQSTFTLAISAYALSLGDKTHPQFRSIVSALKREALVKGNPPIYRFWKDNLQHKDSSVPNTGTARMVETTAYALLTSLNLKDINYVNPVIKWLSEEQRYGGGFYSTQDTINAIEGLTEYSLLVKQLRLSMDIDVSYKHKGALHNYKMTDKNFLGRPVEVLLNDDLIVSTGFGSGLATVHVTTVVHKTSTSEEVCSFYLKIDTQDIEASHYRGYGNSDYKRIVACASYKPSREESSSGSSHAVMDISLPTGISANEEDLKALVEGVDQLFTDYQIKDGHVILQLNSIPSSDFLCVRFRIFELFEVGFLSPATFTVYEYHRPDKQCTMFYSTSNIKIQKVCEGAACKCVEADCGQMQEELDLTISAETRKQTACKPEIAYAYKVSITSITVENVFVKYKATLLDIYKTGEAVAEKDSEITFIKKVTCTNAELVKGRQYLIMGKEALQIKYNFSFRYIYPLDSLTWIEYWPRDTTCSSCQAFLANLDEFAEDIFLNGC
# [2] = target: T1, human complement component C5; test: cell-based or functional assay; remark: listed apart in the source
# [3] = target: T1, human complement component C5; test: SPR single-cycle kinetics, human C5, n=1
# mouse serum albumin = target: T2, mouse serum albumin (mouse, UniProt P07724 25-608); test: monoclonal phage ELISA
# T2 construct: also called MSA
# [4] = target: T1, human complement component C5; test: SPR (Biacore), C5, mean of n=3
# rat serum albumin = rat serum albumin (rat, UniProt P02770 25-608); test: monoclonal phage ELISA
# Sequence of rat serum albumin (P02770 25-608 limits assumed): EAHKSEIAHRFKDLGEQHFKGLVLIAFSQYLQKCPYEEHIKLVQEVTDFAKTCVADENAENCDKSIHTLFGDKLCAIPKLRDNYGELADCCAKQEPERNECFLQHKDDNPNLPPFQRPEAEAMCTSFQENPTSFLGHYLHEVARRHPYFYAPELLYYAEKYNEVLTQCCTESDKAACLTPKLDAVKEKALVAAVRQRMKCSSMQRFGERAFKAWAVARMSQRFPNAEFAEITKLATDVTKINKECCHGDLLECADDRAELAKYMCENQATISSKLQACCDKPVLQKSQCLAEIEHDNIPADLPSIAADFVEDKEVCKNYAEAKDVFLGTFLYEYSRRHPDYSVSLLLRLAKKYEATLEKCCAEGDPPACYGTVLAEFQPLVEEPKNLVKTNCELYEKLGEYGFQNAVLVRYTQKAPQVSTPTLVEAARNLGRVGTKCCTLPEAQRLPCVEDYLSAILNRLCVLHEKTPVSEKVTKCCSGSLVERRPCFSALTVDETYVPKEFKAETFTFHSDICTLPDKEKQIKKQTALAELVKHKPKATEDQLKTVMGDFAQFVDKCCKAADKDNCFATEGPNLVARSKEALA
# [5] = target: T1, human complement component C5; test: SPR multi-cycle kinetics, human C5 immobilised, mean of n=3
# [6] = target: T1, human complement component C5
# [7] = target: T1, human complement component C5; remark: listed apart in the source
# [8] = target: T1, human complement component C5; remark: listed apart in the source
binder,measurement,setting,value
B1,"Alternative pathway C5b neoepitope ELISA, average Emax",[1],56.8%
same,"Alternative pathway C5b neoepitope ELISA, geomean IC50",[1],46.2 nM
same,"Classical pathway C5b deposition ELISA, average Emax",[2],-33.9%
same,"Classical pathway C5b deposition ELISA, geomean IC50",[2],6.6 nM
same,Kd,[3],0.643 nM
same,koff,[3],0.000103 s⁻¹
same,kon,[3],160000 M⁻¹ s⁻¹
B2,binding result,mouse serum albumin,binds
B3,Kd,[4],0.596 nM
B4,Kd,[4],0.192 nM
B5,binding result,rat serum albumin,binds
same,binding result,mouse serum albumin,binds
"Palmitoyl-GCPPGYKSGVDCSPGSECKWGCYAVDGRRYGGYGADSGVGS (also: disulphides formed by free energy method, pairing not given here) [K57chemFE-Palmitoyl]",Kd,[5],9.52 nM
same,koff,[5],0.000477 s⁻¹
same,kon,[5],51100 M⁻¹ s⁻¹
B6,binding result,rat serum albumin,binds
same,binding result,mouse serum albumin,binds
B7,binding result,rat serum albumin,binds
same,binding result,mouse serum albumin,binds
B8,binding result,rat serum albumin,binds
same,binding result,mouse serum albumin,binds
B9,binding result,rat serum albumin,binds
same,binding result,mouse serum albumin,binds
B10,binding result,rat serum albumin,binds
same,binding result,mouse serum albumin,binds
B11,binding result,rat serum albumin,binds
same,binding result,mouse serum albumin,binds
B12,binding result,rat serum albumin,binds
same,binding result,mouse serum albumin,binds
B13,binding result,rat serum albumin,binds
same,binding result,mouse serum albumin,binds
B14,binding result,rat serum albumin,binds
same,binding result,mouse serum albumin,binds
"cyclo(VCPDGFNWGYGCAAGSSRFCTRHDWCCYDERADSHTYGFCTGNRV) (also: disulphides formed by free energy method, pairing not given here, Head-to-tail cyclised K8chemFE) [K8 chemFE cyclic]",Kd,[5],28.5 nM
same,koff,[5],0.00259 s⁻¹
same,kon,[5],94000 M⁻¹ s⁻¹
B15,Kd,[4],0.321 nM
B16,Kd,[6],3.3 nM and 2.3 nM and 3.4 nM and 3 nM
same,Kd,[7],4.9 nM and 3 nM and 3.4 nM and 3.7 nM
same,Kd,[8],4.1 nM
same,koff,[8],0.000132 s⁻¹
same,kon,[8],32300 M⁻¹ s⁻¹
B17,Kd,[7],34.9 nM and 57.6 nM and 30.1 nM and 39.3 nM
same,Kd,[8],143 nM
same,koff,[8],0.00162 s⁻¹
same,kon,[8],11300 M⁻¹ s⁻¹
